Molecular target: T1, factor Xa (UniProt P00742 41-179; P00742 235-488, limits assumed)
T1 construct: Bought enzyme; The active enzyme has a light and a heavy chain cut from that precursor; also called FXa
Assay: discontinuous chromogenic substrate assay of FXa inhibition with pentasaccharide, against plasma AT
Experimental: The pentasaccharide is added in excess in the reaction media so that every tested antithrombin is bound to the pentasaccharide. In the absence of pentasaccharide, polybrene (100 μg/ml final) is added in order to neutralize any sulfated glycosaminoglycan that may be present in the reaction media. […] The analysis of the data is performed using the GraphPad Prism version 3 software. Absorbance recording is continuous or discontinuous according to the expected inhibition rate constant (kon).
When the expected kon is lower than 10⁴ M⁻¹.s⁻¹ the discontinuous method is used. […] At the end of this incubation period, 190 μl of kinetic buffer containing 200 μM substrate is added and absorbance at 405 nm is recorded.

T1 sequence (P00742 41-179 limits assumed, form in doubt, chain 1 of 2): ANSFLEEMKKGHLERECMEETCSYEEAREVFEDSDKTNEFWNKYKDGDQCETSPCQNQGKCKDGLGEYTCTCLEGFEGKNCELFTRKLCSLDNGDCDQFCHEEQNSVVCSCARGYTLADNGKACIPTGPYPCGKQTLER
T1 sequence (P00742 235-488 limits assumed, form in doubt, chain 2 of 2): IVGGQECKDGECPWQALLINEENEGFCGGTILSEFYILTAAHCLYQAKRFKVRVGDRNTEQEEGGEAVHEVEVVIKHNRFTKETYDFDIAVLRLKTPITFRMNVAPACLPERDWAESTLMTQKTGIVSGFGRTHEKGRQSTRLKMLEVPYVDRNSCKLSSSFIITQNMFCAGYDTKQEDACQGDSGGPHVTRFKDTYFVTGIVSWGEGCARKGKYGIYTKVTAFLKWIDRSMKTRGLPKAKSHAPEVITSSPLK

- fold lower kon than plasma AT: ≥ 7600 fold
B1: AT-N135Q-Pro394 (other)
chain: HGSPVDICTAKPRDIPMNPMCIYRSPEKKATEDEGSEQKIPEATNRRVWELSKANSRFATTFYQHLADSKNDNDNIFLSPLSISTAFAMTKLGACNDTLQQLMEVFKFDTISEKTSDQIHFFFAKLNCRLYRKAQKSSKLVSANRLFGDKSLTFNETYQDISELVYGAKLQPLDFKENAEQSRAAINKWVSNKTEGRITDVIPSEAINELTVLVLVNTIYFKGLWKSKFSPENTRKELFYKADGESCSASMMYQEGKFRYRRVAEGTQVLELPFKGDDITMVLILPKPEKSLAKVEKELTPEVLQEWLDELEEMMLVVHMPRFRIEDGFSLKEQLQDMGLVDLFSPEKSKLPGIVAEGRDDLYVSDAFHKAFLEVNEEGSEAAASTAVVIAGRPSLNPNRVTFKANRPFLVFIREVPLNTIIFMGRVANPCVK
